# B1: MBP-tagged Mre11-C49 peptide (Mre11 C-terminal residues 644-692) [S. cerevisiae] / HisSUMO-tagged Mer2 [S. cerevisiae] (parent complex)
# chain 1: SYGLLNGRKTKTKTRPAASTKTASRRGKGRASRTPKTDILGSLLAKKRK
# chain 2: MVARGRTDEISTDVSEANSEHSLMITETSSPFRSIFSHSGKVANAGALEESDKQILEWAGKLELESMELRENSDKLIKVLNENSKTLCKSLNKFNQLLEQDAATNGNVKTLIKDLASQIENQLDKVSTAMLSKGDEKKTKSDSSYRQVLVEEISRYNSKITRHVTNKQHETEKSMRCTQEMLFNVGSQLEDVHKVLLSLSKDMHSLQTRQTALEMAFREKADHAYDRPDVSLNGTTLLHDMDEAHDKQRKKSVPPPRMMVTRSMKRRRSSSPTLSTSQNHNSEDNDDASHRLKRAARTIIPWEELRPDTLESEL
# Variants of: B1
# Assay: co-expression Ni-NTA pulldown, anti-MBP immunoblot quantification; co-expressed in E. coli; at least seven independent samples; parent: 1; read off a plot
row,Variant,ratio to parent
1,"chain 1 L40A, chain 1 L43A, chain 1 K47A",~0.35

# Variants of: B1
# Assay: as above
# Remark: another data set of the same source
row,Variant,ratio to parent
1,"chain 2 E50A, chain 2 Q54A, chain 2 E57A, chain 2 K61A",~0.26
